For 3 substances, Kd, koff and kon results are on record in paper PMC9027083.

By pKd is commonly meant the Kd on a negative log10 scale, so that one unit is a factor of ten. One may read the koff as the rate constant with which the complex falls apart. A word on the kon: it is a measure of how fast the partners come together.

pKd: −log10 of the molar value.

The target in the experiment is recombinant MBP-EDIII of DENV2 (Dengue virus 2 (strain Thailand/16681/84)). Put plainly: SPR.
Turning to 1A1D-2 Fab A54E-Y105R double mutant, the pKd was 7.91, the koff worked out at 0.00274 s⁻¹ and the kon came to 222000 M⁻¹ s⁻¹.

In the case of 1A1D-2 Fab A54E.H, the pKd was 7.38, the koff was determined as 0.00822 s⁻¹ and the kon amounted to 197000 M⁻¹ s⁻¹.

Regarding 1A1D-2 Fab Y105R.H, the pKd was 6.69, the off-rate constant (koff) is 0.0195 s⁻¹ and the kon amounted to 96200 M⁻¹ s⁻¹.
